T1: GDF15 mutant L294R (knuckle region), albumin fusion (human, UniProt Q99988 195-308)
T1 construct: not shown: albumin fusion partner
T1 chain: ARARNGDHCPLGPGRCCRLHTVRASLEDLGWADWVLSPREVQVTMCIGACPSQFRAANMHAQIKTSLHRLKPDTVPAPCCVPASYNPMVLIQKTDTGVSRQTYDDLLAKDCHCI

T2: GDF15 mutant I285R (knuckle region), albumin fusion (human, UniProt Q99988 195-308)
T2 construct: not shown: albumin fusion partner
T2 chain: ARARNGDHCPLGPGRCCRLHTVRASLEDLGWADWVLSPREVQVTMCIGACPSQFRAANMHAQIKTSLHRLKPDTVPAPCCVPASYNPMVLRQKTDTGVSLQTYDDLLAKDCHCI

T3: GDF15 mutant Q247R (wrist region), albumin fusion (human, UniProt Q99988 195-308)
T3 construct: not shown: albumin fusion partner
T3 chain: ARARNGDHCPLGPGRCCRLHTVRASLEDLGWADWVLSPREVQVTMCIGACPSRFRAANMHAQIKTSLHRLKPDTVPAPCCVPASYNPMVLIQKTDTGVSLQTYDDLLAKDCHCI

T4: GDF15 mutant W228R (wrist region), albumin fusion (human, UniProt Q99988 195-308)
T4 construct: not shown: albumin fusion partner
T4 chain: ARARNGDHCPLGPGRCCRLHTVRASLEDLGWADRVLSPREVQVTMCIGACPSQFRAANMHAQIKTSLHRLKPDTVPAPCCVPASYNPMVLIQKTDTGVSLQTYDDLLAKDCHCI

T5: GDF15 mutant M253R (wrist region), albumin fusion (human, UniProt Q99988 195-308)
T5 construct: not shown: albumin fusion partner
T5 chain: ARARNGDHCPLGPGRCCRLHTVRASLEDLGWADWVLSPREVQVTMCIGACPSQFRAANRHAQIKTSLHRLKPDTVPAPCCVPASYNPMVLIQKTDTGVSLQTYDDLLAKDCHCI

T6: GDF15 mutant D289R (finger tip region), albumin fusion (human, UniProt Q99988 195-308)
T6 construct: not shown: albumin fusion partner
T6 chain: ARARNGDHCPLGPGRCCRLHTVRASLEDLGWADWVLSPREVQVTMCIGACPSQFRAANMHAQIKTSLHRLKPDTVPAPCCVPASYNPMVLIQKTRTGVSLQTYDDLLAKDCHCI

T7: GDF15 mutant S278R (back-of-hand), albumin fusion (human, UniProt Q99988 195-308)
T7 construct: not shown: albumin fusion partner
T7 chain: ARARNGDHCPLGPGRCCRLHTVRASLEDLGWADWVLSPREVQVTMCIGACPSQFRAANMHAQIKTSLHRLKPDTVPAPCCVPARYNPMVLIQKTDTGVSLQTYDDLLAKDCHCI

T8: Human GDF15 native: naturally produced human GDF15 purchased from Peprotech (human, UniProt Q99988 195-308)
T8 construct: Bought protein
T8 sequence: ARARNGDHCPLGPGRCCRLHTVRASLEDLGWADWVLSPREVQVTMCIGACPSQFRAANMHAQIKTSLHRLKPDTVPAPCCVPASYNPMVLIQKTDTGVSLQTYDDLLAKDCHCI

T9: human GDF15 (target of the SET measurements; form not stated) (human, UniProt Q99988 195-308, limits assumed)
T9 sequence: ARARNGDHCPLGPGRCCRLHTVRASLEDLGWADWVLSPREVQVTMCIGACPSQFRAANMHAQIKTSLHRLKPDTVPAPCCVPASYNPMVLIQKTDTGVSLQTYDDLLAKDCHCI

T10: Human His-GDF15: HIS-tagged human GDF15 (human, UniProt Q99988 195-308)
T10 construct: not shown: His tag
T10 sequence: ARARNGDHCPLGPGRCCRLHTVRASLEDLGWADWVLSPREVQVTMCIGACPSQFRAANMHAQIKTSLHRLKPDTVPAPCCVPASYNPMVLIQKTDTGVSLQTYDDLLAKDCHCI

T11: Cyno His-GDF15: HIS-tagged cyno GDF15 (cynomolgus, UniProt G7PWZ3 197-308, limits assumed)
T11 construct: not shown: His tag
T11 sequence (looked up): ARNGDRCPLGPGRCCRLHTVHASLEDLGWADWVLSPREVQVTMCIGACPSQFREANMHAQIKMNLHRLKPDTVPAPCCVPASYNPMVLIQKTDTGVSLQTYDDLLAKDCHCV

T12: Mouse His-GDF15: HIS-tagged mouse GDF15 (mouse, UniProt Q9Z0J7 189-303)
T12 construct: not shown: His tag
T12 sequence (looked up): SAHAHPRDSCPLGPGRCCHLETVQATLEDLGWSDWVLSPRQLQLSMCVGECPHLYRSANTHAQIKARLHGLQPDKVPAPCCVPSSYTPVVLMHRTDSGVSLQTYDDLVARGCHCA

T13: Rat GDF15 HIS: HIS-tagged rat GDF15 (rat, UniProt Q9Z0J6 189-303, limits assumed)
T13 construct: also called Rat His-GDF15; not shown: His tag
T13 sequence (looked up): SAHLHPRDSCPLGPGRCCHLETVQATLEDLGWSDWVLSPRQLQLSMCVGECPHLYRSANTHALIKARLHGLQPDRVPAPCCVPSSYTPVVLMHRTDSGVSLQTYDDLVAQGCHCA

T14: GDF15 mutant S231R (knuckle region), albumin fusion (human, UniProt Q99988 195-308)
T14 construct: not shown: albumin fusion partner
T14 chain: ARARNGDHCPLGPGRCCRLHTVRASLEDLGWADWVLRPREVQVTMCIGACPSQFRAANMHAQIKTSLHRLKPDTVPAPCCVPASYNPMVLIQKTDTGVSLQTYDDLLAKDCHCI


Assays:
[1] = target: T1, GDF15 mutant L294R (knuckle region), …; assay: direct ELISA on coated albumin-fusion GDF15 mutant
Method: (§1) Antibody epitope was determined by a direct ELISA method with GDF15 mutants. Albumin fusion GDF15 mutants were coated in wells of a 96-well EIA plate. After blocking, serially diluted anti-hGDF15 human antibodies were added to the GDF15-coated wells, followed by incubation at an ambient temperature for a few hours. Antibody binding was detected using an anti-human IgG antibody conjugated with horseradish peroxidase (HRP) and HRP substrate.

[2] = target: T2, GDF15 mutant I285R (knuckle region), …; assay: direct ELISA on coated albumin-fusion GDF15 mutant
Method: as §1

[3] = target: T3, GDF15 mutant Q247R (wrist region), …; assay: direct ELISA on coated albumin-fusion GDF15 variant
Method: as §1

[4] = target: T4, GDF15 mutant W228R (wrist region), …; assay: as above
Method: as §1

[5] = target: T5, GDF15 mutant M253R (wrist region), …; assay: as above
Method: as §1

[6] = target: T6, GDF15 mutant D289R (finger tip region), …; assay: as above
Method: as §1

[7] = target: T7, GDF15 mutant S278R (back-of-hand), …; assay: as above
Method: as §1

[8] = target: T8, Human GDF15 native: naturally produced …; assay: Biacore SPR (rounded from Table 2, human GDF15 native)
Method: (§2) Anti-human Fc capture antibody was immobilized at 0.5 μg/ml on CMS chip in all four flow cells to achieve 8000 to 12,000 resonance units (RU) on the surface. Anti-hGDF15 antibodies were captured at flow rate […], at 0.25 to 0.5 μg/ml on the chip to get about 30 RU in flow cells 2, 3 and 4. GDF15 ligand was flowed at […] over captured antibodies and reference flow cell 1 for 600 and 1200 seconds contact time. Eight doses serially diluted 1 to 2, ranging from 20 to 0.156 nM, were tested. All cycles were repeated twice, regenerated between cycles with 3M MgCl₂ at flow […], 20 seconds contact time. Data were normalized by subtracting reference flow cell results. Data were fit with 1:1 Kinetics model with RI (bulk refractive index) set constant at 0.

[9] = target: T9, human GDF15 (target of the SET …); assay: solution equilibrium titration (SET); SET, not Biacore
[10] = target: T10, Human His-GDF15: HIS-tagged human GDF15; assay: Biacore SPR, IgG captured via anti-human Fc, GDF15 in flow
Method: (§3) Biacore assay is based on surface plasmon resonance (SPR) and were used to determine the binding affinity of antibodies to GDF15.
as §2

[11] = target: T11, Cyno His-GDF15: HIS-tagged cyno GDF15; assay: as above
Method: as §3, §2

[12] = target: T12, Mouse His-GDF15: HIS-tagged mouse GDF15; assay: as above
Method: as §3, §2

[13] = target: T13, Rat GDF15 HIS: HIS-tagged rat GDF15; assay: as above
Method: as §3, §2

[14] = target: T8, Human GDF15 native: naturally produced …; assay: as above
Method: as §3, §2

[15] = target: T14, GDF15 mutant S231R (knuckle region), …; assay: direct ELISA: albumin fusion GDF15 mutant coated on the plate, serially diluted antibody, anti-human IgG-HRP detection
Method: as §1

[16] = target: T8, Human GDF15 native: naturally produced …; assay: Biacore SPR (rounded from Table 2, human GDF15 native); Biacore, not SET
Method: as §2

Row | Binder | binding result [1] | binding result [2] | binding result [3] | binding result [4] | binding result [5] | binding result [6] | binding result [7] | Kd [10] [nM] | koff [10] [s⁻¹] | kon [10] [M⁻¹ s⁻¹] | Kd [11] [nM] | koff [11] [s⁻¹] | kon [11] [M⁻¹ s⁻¹] | Kd [12] [nM] | koff [12] [s⁻¹] | kon [12] [M⁻¹ s⁻¹] | Kd [13] [nM] | koff [13] [s⁻¹] | kon [13] [M⁻¹ s⁻¹] | Kd [14] [nM] | further results
1 | ABGDF15-G (antibody, human IgG1, kappa, V domains shown, captured through anti-human Fc in the Biacore assay) VH: QVQLVQSGAEVKKPGSSVKVSCKASGGTFSSHYINWVRQAPGQGLEWMGGIIPAFGGANYAQKFQGRVTITADESTSTAYMELSSLRSEDTAVYYCARFGSVYVSRYSSYYHMDVWGQGTLVTVSS VL: DIQMTQSPSSLSASVGDRVTITCRASQTIYRSLAWYQQKPGKAPKLLIYGASILQSGVPSRFSGSGSGTDFTLTISSLQPEDFATYYCLQRYTSPFTFGQGTKVEIKR | no binding | no binding | binds | binds | binds | binds | binds | 0.137 | 0.000533 | 3.9e+06 | 0.12 | 0.000694 | 5.79e+06 | 0.154 | 0.000343 | 2.23e+06 | 0.138 | 0.000365 | 2.63e+06 | 0.0882 | Kd [8]: 0.088 nM; Kd [9]: 0.02 nM; koff [14]: 0.000512 s⁻¹; kon [14]: 5.8e+06 M⁻¹ s⁻¹; binding result [15]: binds
2 | ABGDF15-A (antibody, human IgG1, kappa, V domains shown, captured through anti-human Fc in the Biacore assay) VH: EVQLVQSGAEVKKPGESLKISCKGSGYSFTDYWISWVRQMPGKGLEWMGIIDPSGSYTIYSPSFQGQVTISADKSISTAYLQWSSLKASDTAMYYCARVSYYGGYFDIWGQGTLVTVSS VL: DIQMTQSPSSLSASVGDRVTITCRASQSISNNLNWYQQKPGKAPKLLIYAASNLQSGVPSRFSGSGSGTDFTLTISSLQPEDFATYYCFQLDHSPFTFGQGTKVEIKR | no binding | no binding | binds | binds | binds | binds | binds | 0.00262 | 0.000247 | 9.42e+07 | 0.0134 | 0.000278 | 2.07e+07 | 0.0568 | 0.000613 | 1.08e+07 | 0.0232 | 0.000451 | 1.95e+07 | 0.0113 | koff [14]: 0.000374 s⁻¹; kon [14]: 3.3e+07 M⁻¹ s⁻¹; Kd [16]: 0.011 nM; binding result [15]: binds

Source: patent US20190135908A1 (Novartis, published 2019)
